Data as given in article PMC8104411, “The structure of MgtE in the absence of magnesium provides new insights into channel gating” (PLoS Biology, 2021).
Several values for one entry are separate records, joined by “and”; a condition that tells them apart may be missing. Equal entries are not always repeated. Each block holds one binder with its values, some of them ahead of it.

Key:
[1] = target: T1, full-length MgtE from Thermus thermophilus (Thermus thermophilus HB8 (ATCC 27634 / …, UniProt Q5SMG8)); assay: ITC; Fab705 (25 uM) injected into the cell with full-length MgtE (about 2.5 uM monomer); 25°C; 20 mM HEPES pH 7.0, 150 mM NaCl, 0.05% DDM, 0 mM MgCl2; three repeats listed one by one; conditions: both partners purified
T1 construct: Mg2+ channel MgtE, Thermus thermophilus, full length; homodimer; In DDM micelles for ITC; source: E. coli C41 (DE3), purified (DDM solubilisation, Ni-NTA, HRV3C cleavage, SEC); not shown: His6, N-terminal, cleaved

[2] = target: T2, full-length Thermus thermophilus MgtE (Thermus thermophilus, UniProt Q5SMG8); assay: ITC; Fab705 (25 uM) injected into full-length MgtE (about 2.5 uM monomer) in the cell; 25°C; 20 mM HEPES pH 7.0, 150 mM NaCl, 0.05% DDM, 0 mM MgCl2; conditions: both partners purified
T2 construct: MgtE Mg2+ channel, Thermus thermophilus, full-length gene in a pET28a-derived vector with an N-terminal hexahistidine tag and an HRV3C site; the cryo-EM model holds only residues 271 to 448 (TM domain); Homodimer; also called wild-type MgtE; WT MgtE; source: E. coli C41 (DE3), purified (Ni-NTA, SEC) in DDM; for cryo-EM reconstituted in PMAL-C8 amphipol; not shown: His6, N-terminal, cleaved

[3] = target: the molecule itself; assay: cryo-EM structure; full-length MgtE-Fab705 complex in PMAL-C8 amphipol, no Mg2+ or other divalent cations; 3.7 Å, C2 symmetry imposed
[4] = target: the molecule itself; assay: cross-linking; disulfide cross-linking with Cu2+ bis-1,10-phenanthroline, 0.5 mg/ml MgtE mutant in 20 mM HEPES pH 7.0, 150 mM NaCl, 0.05% DDM, MgCl2 gradient (0.01 to 30 mM), 4°C, non-reducing SDS-PAGE

Kd [1]: 187 nM and 164 nM
stoichiometry N [1]: 0.89 and 0.9 and 0.83
B1: Fab705 (Fab, V domains shown)
VH: EVKLQESGVELVKPGASVKISCKASGYSFTGYNMNWVKQSHGKSLEWIGNISPYYGTSIYNQNFKGKATLTVDRSSSTAYMQLNSLTSEDSAVYYCARGESFSNYEGYYAMDYWGQGTSVIVSS
VL: DVLMTQTPLSLPVSLGDQASISCRSSQSLVHSDGNTYLHWYLQKPGQSPKLLIYKVSNRFSGVPDRFSGSGSGTDFTLKISRVEAEDLGVYFCSQSTHVPWTFGGGTKLEIK
notes: heavy chain of Fab YN0705; in the deposited MgtE-Fab structure PDB 6LBH; light chain of Fab YN0705; Fab made by papain digestion of the mouse monoclonal IgG YN0705 raised against MgtE proteoliposomes; also called Fab YN0705; Fab antibody fragment Fab705; source: mouse hybridoma culture supernatant; IgG purified by protein G, digested with papain, Fab isolated by gel filtration and protein A …

Kd [2]: 216 ± 52.7 nM
B2: Fab antibody fragment Fab705 (Fab, V domains shown)
VH: EVKLQESGVELVKPGASVKISCKASGYSFTGYNMNWVKQSHGKSLEWIGNISPYYGTSIYNQNFKGKATLTVDRSSSTAYMQLNSLTSEDSAVYYCARGESFSNYEGYYAMDYWGQGTSVIVSS
VL: DVLMTQTPLSLPVSLGDQASISCRSSQSLVHSDGNTYLHWYLQKPGQSPKLLIYKVSNRFSGVPDRFSGSGSGTDFTLKISRVEAEDLGVYFCSQSTHVPWTFGGGTKLEIK
notes: heavy chain of the mouse Fab YN0705; light chain of the mouse Fab YN0705; Fab made by papain digestion of the mouse monoclonal IgG YN0705 raised against MgtE proteoliposomes; also called Fab YN0705; YN0705; source: mouse hybridoma culture supernatant; IgG purified by protein G, digested with papain, Fab isolated by gel filtration and protein A chromatography

More lines, now with the values behind:

B3: full-length Thermus thermophilus MgtE (natural protein, UniProt Q5SMG8 1-450, looked up)
chain: MEEKLAVSLQEALQEGDTRALREVLEEIHPQDLLALWDELKGEHRYVVLTLLPKAKAAEVLSHLSPEEQAEYLKTLPPWRLREILEELSLDDLADALQAVRKEDPAYFQRLKDLLDPRTRAEVEALARYEEDEAGGLMTPEYVAVREGMTVEEVLRFLRRAAPDAETIYYIYVVDEKGRLKGVLSLRDLIVADPRTRVAEIMNPKVVYVRTDTDQEEVARLMADYDFTVLPVVDEEGRLVGIVTVDDVLDVLEAEATEDIHKLGAVDVPDLVYSEAGPVALWLARVRWLVILILTGMVTSSILQGFESVLEAVTALAFYVPVLLGTGGNTGNQSATLIIRALATRDLDLRDWRRVFLKEMGVGLLLGLTLSFLLVGKVYWDGHPLLLPVVGVSLVLIVFFANLVGAMLPFLLRRLGVDPALVSNPLVATLSDVTGLLIYLSVARLLLEAV
notes: MgtE Mg2+ channel, Thermus thermophilus, full-length gene in a pET28a-derived vector with an N-terminal hexahistidine tag and an HRV3C site; the cryo-EM model holds only residues 271 to 448 (TM domain); Homodimer; also called wild-type MgtE; WT MgtE; source: E. coli C41 (DE3), purified (Ni-NTA, SEC) in DDM; for cryo-EM reconstituted in PMAL-C8 amphipol; not shown: His6, N-terminal, cleaved
stoichiometry N [3]: 2

B4: MgtE double cysteine mutant T336C/L421C (natural protein, Thermus thermophilus, UniProt Q5SMG8 1-450, looked up)
chain: MEEKLAVSLQEALQEGDTRALREVLEEIHPQDLLALWDELKGEHRYVVLTLLPKAKAAEVLSHLSPEEQAEYLKTLPPWRLREILEELSLDDLADALQAVRKEDPAYFQRLKDLLDPRTRAEVEALARYEEDEAGGLMTPEYVAVREGMTVEEVLRFLRRAAPDAETIYYIYVVDEKGRLKGVLSLRDLIVADPRTRVAEIMNPKVVYVRTDTDQEEVARLMADYDFTVLPVVDEEGRLVGIVTVDDVLDVLEAEATEDIHKLGAVDVPDLVYSEAGPVALWLARVRWLVILILTGMVTSSILQGFESVLEAVTALAFYVPVLLGTGGNTGNQSACLIIRALATRDLDLRDWRRVFLKEMGVGLLLGLTLSFLLVGKVYWDGHPLLLPVVGVSLVLIVFFANLVGAMLPFLLRRLGVDPACVSNPLVATLSDVTGLLIYLSVARLLLEAV
notes: MgtE Mg2+ channel, Thermus thermophilus, with two cysteine substitutions; wild-type MgtE has no endogenous cysteine; source: E. coli C41 (DE3), purified as the wild type, with 20 mM DTT added before its removal by SEC; not shown: His6, N-terminal, cleaved
binding result [4]: binds
